Data: article PMC12065904

Biological target: rabbit skeletal muscle actin, polymerized in vitro (F-actin) (rabbit) (UniProt P68135)
Assay: co-sedimentation; F-actin cosedimentation: CaVβ proteins incubated with polymerized actin in polymerization buffer (0.2 mM CaCl2, 50 mM KCl, 2 mM MgCl2, 1 mM ATP, 5 mM HEPES pH 8.0), 25 µM phalloidin; 150,000 × g, 20 min, 4 °C; densitometry of pellet over total; also at 30–150 mM NaCl and after 30 or 90 min of incubation

- percent cosedimented with actin: > 80%
Substance: CaVβ4 R482X (truncated, naturally occurring variant of human CaVβ4 linked to juvenile myoclonic epilepsy) (from UniProt O00305-1 1-431) (domain or fragment)
